What all share (assay): cell_activity
Data set [1] relates to ZFA36-ND4 (Artificial (ND4 from Clostridiales bacterium)).
The subject of data set [2] is ZFA36-ND3 (Artificial (ND3 from Clostridium sp. 7_2_43FAA)).
Data set [3] concerns ZFA36-FokI (FokI-ND ZFN) (Artificial).
The subject of data set [4] is ZFA36-ND1 (Artificial (ND1 from Bacillus sp. SGD-V-76)).
Data set [5] has as its system ZFA36-FokI-Sharkey (Artificial). Conditions: SSA reporter HEK293T.
Data set [6] deals with TALE-ROSA26-FokI right (Artificial). The following applies: SSA reporter pair with left TALEN, close to reference.
Data set [7] deals with TALE-ROSA26-ND1 right (Artificial). Conditions: SSA reporter pair with left TALEN.
Another data set concerns ZFL1-ND1 (Artificial). The following applies: SSA, ZFL1-ND1 alone.
Data set [8] relates to TALE-HPRT1-FokI right (Artificial). The following applies: SSA reporter pair with left TALEN.
Data set [9] relates to TALE-HPRT1-ND1 right (Artificial). The following applies: SSA reporter pair with left TALEN.
The subject of data set [10] is TALE-HPRT1-FokI left (Artificial). Conditions: SSA reporter pair with right TALEN.
Data set [11] concerns TALE-HPRT1-ND1 left (Artificial). Conditions: SSA reporter pair with right TALEN.
For data set [12], the system named is TALE-ROSA26-FokI left (Artificial). The following applies: SSA reporter pair with right TALEN, close to reference.
In data set [13] the test system is TALE-ROSA26-ND1 left (Artificial). The following applies: SSA reporter pair with right TALEN.

Chain of ZFA36-FokI (FokI-ND ZFN) (Artificial) (chain, as listed by the source): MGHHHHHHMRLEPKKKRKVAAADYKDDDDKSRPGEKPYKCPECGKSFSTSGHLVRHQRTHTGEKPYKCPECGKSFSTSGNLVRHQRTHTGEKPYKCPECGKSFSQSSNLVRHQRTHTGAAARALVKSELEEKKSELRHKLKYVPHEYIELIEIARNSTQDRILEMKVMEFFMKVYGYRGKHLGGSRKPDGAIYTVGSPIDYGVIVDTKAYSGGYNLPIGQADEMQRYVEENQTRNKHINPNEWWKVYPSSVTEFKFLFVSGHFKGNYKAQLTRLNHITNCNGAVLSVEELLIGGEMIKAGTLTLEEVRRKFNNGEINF
Chain of ZFA36-FokI-Sharkey (Artificial) (chain, as listed by the source): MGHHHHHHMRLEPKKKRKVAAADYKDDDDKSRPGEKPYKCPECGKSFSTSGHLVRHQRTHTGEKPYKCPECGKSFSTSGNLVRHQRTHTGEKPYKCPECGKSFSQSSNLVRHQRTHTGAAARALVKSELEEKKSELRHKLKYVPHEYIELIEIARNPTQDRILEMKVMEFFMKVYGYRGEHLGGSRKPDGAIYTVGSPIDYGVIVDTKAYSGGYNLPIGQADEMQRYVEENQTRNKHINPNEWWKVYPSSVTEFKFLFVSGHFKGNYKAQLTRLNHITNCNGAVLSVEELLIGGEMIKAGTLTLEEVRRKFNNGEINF
Chain of ZFL1-ND1 (Artificial) (chain, as listed by the source): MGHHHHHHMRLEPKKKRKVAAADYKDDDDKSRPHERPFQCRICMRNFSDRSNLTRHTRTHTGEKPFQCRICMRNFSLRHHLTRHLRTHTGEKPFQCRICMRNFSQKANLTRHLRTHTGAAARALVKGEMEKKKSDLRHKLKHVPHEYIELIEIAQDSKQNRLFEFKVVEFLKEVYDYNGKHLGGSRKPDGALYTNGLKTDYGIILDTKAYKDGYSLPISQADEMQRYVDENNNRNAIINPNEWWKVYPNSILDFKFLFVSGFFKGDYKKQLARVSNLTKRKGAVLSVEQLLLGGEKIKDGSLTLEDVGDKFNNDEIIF

Regarding “ACCATCTTCAAGAGAGAAGATGGC (double strand) [ZFA36-ZFA36 CHO-K1 2nd site]”, the activity (% mutated clones) in [1] (CHO-K1, 0/14) is 0; in data set [2] (CHO-K1, 3/16) it was 18.8.
As to “ACCATCTTCCACTCTGAAGATGGA (double strand) [ZFA36-ZFA36 CHO-K1 1st site]”, the activity (% mutated clones) in data set [1] (CHO-K1, 0/16, no cleavage detected) was 0; in data set [2] (CHO-K1, 0/15, Cel-I about 25-45% of FokI depending on site), 0.
With “ACCATCTTCNNNNNNGAAGATGGT (double strand) [ZFA36-6bp-ZFA36 site]”, the binding signal (fold of ZFA36-FokI) in data set [1] (SSA reporter HEK293T) is 0.2; in data set [4] (SSA reporter HEK293T), more than 1.2; in [5], 1.5; in [2] (SSA reporter HEK293T), 0.2. The binding signal in data set [3] (SSA reporter HEK293T, reference) came out at 1.
On to “GCCTCGACTTGCAGATCA (double strand) [ROSA26 right half-site (top strand)]”, for which, in data set [6], the binding signal (fold of ZFA36-FokI) stood at 1. Besides, in data set [7], the binding signal (fold of TALE-ROSA26-FokI) amounted to 2.
As to “GTCACCTTCNNNNNNGAAGATGGT (double strand) [ZFL1-6bp-ZFA36 site]”, the binding signal in the data set with ZFL1-ND1 (Artificial) came out at 40%; in data set [3] (SSA, ZFA36-FokI alone), 35%; in [4] (SSA, ZFA36-ND1 alone), 90%.
On to “TCCTAATCACTATGTCGA (double strand) [HPRT1 right half-site (top strand)]”, for which, in [8], the binding signal (fold of ZFA36-FokI) is 0.5. Moreover, the binding signal (fold of TALE-HPRT1-FokI) in data set [9] was found to be 2.
On to “TGAACCAGGCTATGACCT (double strand) [HPRT1 left half-site]”, for which the binding signal (fold of ZFA36-FokI) in data set [10] came out at 0.5. In data set [11], this sequence returned a binding signal (fold of TALE-HPRT1-FokI) of 2.
In the case of “TGCCCAGAAGACTCCCG (double strand) [ROSA26 left half-site]”, in data set [12], the binding signal (fold of ZFA36-FokI) turned out to be 1. Also, in data set [13], the binding signal (fold of TALE-ROSA26-FokI) amounted to 2.

These data come from patent publication US20210332339.
